These results are taken from article PMC11927390.

For test [1], the target named is FcγRIIIa on the effector cells of the Promega ADCC Reporter Bioassay (human) (UniProt P08637).
Test [2] addresses recombinant soluble ULBP6-02 (human) (UniProt Q5VY80).
For test [3], the target named is human FcγRIIa-R167, biotinylated (human) (UniProt P12318). The experiment in a line: SPR; Biacore, 37°C; biotinylated FcγRs captured on Series S Sensor Chip CAP; threefold serial dilutions of the anti-ULBP6/2/5 antibodies injected at 30 μL/minute; HBS-P.
Chain of human FcγRIIa-R167, biotinylated (human) (P12318 34-317 H167R): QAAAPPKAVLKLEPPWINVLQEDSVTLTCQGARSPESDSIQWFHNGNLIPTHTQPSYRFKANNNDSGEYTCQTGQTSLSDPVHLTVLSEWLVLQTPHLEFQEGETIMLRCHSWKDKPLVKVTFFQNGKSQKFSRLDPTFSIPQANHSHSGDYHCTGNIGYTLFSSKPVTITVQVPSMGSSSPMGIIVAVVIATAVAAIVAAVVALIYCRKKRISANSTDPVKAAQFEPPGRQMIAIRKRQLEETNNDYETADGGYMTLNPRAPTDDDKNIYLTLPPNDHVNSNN
In test [4] the target is human FcγRI, biotinylated (human) (UniProt P12314). The description is as above.
Chain of human FcγRI, biotinylated (human) (P12314 16-374): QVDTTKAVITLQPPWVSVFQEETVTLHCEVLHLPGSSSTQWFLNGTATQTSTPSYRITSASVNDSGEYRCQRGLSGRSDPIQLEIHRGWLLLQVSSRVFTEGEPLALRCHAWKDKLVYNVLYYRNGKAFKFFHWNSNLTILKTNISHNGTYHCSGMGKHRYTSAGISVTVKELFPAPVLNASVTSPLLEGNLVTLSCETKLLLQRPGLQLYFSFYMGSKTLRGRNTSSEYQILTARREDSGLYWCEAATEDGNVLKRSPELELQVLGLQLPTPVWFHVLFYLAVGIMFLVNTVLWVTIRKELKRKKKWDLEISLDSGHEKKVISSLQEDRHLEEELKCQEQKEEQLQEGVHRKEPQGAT
Test [5] has as its target human FcγRIIIa-F176, biotinylated (human) (UniProt P08637). Described as above.
The target of test [6] is human FcγRIIIa-V176, biotinylated (human) (UniProt P08637). The description is as above.
Chain of human FcγRIIIa-V176, biotinylated (human) (P08637 17-254 F176V): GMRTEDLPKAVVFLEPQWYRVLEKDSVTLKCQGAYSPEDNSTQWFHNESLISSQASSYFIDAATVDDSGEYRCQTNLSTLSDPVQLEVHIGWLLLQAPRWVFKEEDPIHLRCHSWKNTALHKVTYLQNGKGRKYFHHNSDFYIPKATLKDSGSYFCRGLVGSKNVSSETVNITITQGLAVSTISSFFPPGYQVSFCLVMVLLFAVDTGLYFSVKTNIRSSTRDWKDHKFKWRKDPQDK
Test [7] concerns the target human FcγRIIa-H167, biotinylated (human) (UniProt P12318). The test is described as above.
The target of test [8] is human FcγRIIb, biotinylated (human) (UniProt P31994). The description is as above.
Chain of human FcγRIIb, biotinylated (human) (P31994 43-310): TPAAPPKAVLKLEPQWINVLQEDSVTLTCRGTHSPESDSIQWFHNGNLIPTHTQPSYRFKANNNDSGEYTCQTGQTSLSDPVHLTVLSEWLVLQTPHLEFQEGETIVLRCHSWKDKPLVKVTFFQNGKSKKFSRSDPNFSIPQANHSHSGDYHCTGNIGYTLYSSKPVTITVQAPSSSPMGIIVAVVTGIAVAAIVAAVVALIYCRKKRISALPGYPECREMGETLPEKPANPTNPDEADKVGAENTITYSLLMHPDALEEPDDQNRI
The target of test [9] is recombinant soluble ULBP6-02 (human) (UniProt Q5VY80). This is another data set of the same source.
In another test the target is human NKG2D Fc (human) (UniProt P26718). Kind of test: SPR; Biacore 8K or 8K+, 37°C; NKG2D Fc captured (Protein A chip as told for human NKG2D-Fc), ULBP6 as analyte in HBS-P (0.01 mol/L HEPES pH 7.4, 0.15 mol/L NaCl, 0.005% P20); kinetic or steady-state fit not given.
Chain of human NKG2D Fc (human) (P26718 73-216): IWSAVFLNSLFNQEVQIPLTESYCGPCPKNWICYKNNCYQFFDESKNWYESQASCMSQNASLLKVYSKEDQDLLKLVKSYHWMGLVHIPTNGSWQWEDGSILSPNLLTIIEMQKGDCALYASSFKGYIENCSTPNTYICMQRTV
A further test concerns the target murine NKG2D Fc (murine) (UniProt O54709). The description is as above.

Chain of murine NKG2D Fc (murine) (O54709 90-232): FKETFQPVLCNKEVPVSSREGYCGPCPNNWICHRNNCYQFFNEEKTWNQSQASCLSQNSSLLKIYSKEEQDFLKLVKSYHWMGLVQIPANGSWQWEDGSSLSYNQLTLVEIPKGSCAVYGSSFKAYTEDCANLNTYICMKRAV
Chain of FcγRIIIa on the effector cells of the Promega ADCC Reporter Bioassay (human) (P08637 17-254): as the sequence (P08637 17-254 F176V) above, with V160F counted along it
Chain of human FcγRIIIa-F176, biotinylated (human) (P08637 17-254): as the sequence (P08637 17-254 F176V) above, with V160F counted along it
Chain of human FcγRIIa-H167, biotinylated (human) (P12318 34-317): as the sequence (P12318 34-317 H167R) above, with R134H counted along it

The substance “23ME-01473, humanized Fc effector-enhanced (afucosylated) anti-ULBP6/2/5 antibody” had an EC50 of FcγRIIIa activation (RLU), Promega ADCC reporter assay with luciferase effector cells and COV644 target cells, 0.0001 to 10 nmol/L antibody in [1] of 0.0532 nM. The IC50 (so in the source) of IFNγ secretion by IL-2/IL-15-primed PBMCs cocultured with COV644 cells and 50 nmol/L sULBP6-02, 0.05-200 nmol/L 23ME-01473, donor d1213; pair blocked: sULBP6-02 and NKG2D in test [2] is 21.5 nM. Besides, the IC50 (so in the source) of IFNγ secretion by IL-2/IL-15-primed PBMCs cocultured with COV644 cells and 50 nmol/L sULBP6-02, 0.05-200 nmol/L 23ME-01473, donor d1802; pair blocked: sULBP6-02 and NKG2D in test [2] worked out at 25.5 nM. In [2], the IC50 (so in the source) of IFNγ secretion by IL-2/IL-15-primed PBMCs cocultured with COV644 cells and 50 nmol/L sULBP6-02, 0.05-200 nmol/L 23ME-01473, donor d3761; pair blocked: sULBP6-02 and NKG2D amounted to 13.6 nM. Further, the IC50 (so in the source) of IFNγ secretion by IL-2/IL-15-primed PBMCs cocultured with COV644 cells and 50 nmol/L sULBP6-02, 0.05-200 nmol/L 23ME-01473, donor d33936; pair blocked: sULBP6-02 and NKG2D in [2] is 25.6 nM. For the same substance, the dissociation constant Kd was 406 nM in test [3]; 0.92 nM in [4]; 25.5 nM in [5]; 6.74 nM in test [6]; 270 nM in test [7]; 2230 nM in [8].

Regarding “Fc-Att-anti-ULBP6/2/5, effector-attenuated (N297G) version of 23ME-01473 (antibody)”, in test [9], the IC50 (so in the source) of the rescue of IFNγ production by PBMCs cocultured with COV644 cells in the presence of sULBP6, donor d1212; pair blocked: sULBP6-02 and NKG2D was 26 nM; the IC50 (so in the source) of the rescue of IFNγ production by PBMCs cocultured with COV644 cells in the presence of sULBP6, donor d1939; pair blocked: sULBP6-02 and NKG2D is 10.6 nM; the IC50 (so in the source) of the rescue of IFNγ production by PBMCs cocultured with COV644 cells in the presence of sULBP6, donor d33936; pair blocked: sULBP6-02 and NKG2D amounted to 16.5 nM.

As for “human ULBP6 (analyte of Supplementary Table S6) (from UniProt Q5VY80 26-218) (ligand)”, the Kd in the test with human NKG2D Fc (human) is 0.8 nM; with murine NKG2D Fc (murine), 0.64 nM.
